Data: patent publication US20160215065A1 (Genentech, published 2016)
Changes are numbered by the printed parent chain. Values joined by “and” are separate entries in the source; they are usually repeats but may differ in a detail not shown here. Equal entries are not always repeated. Where two headings read alike, the source gives them in different places.

Key:
[1] = test system: T1, internally quenched fluorogenic peptide substrate with P1-arginine
T1 sequence: IRRSSYSFKK

[2] = test system: T2, internally quenched fluorogenic peptide substrate with P1-methylarginine
T2 sequence: IRRSSYSFKK

[3] = biological target: T3, internally quenched fluorogenic peptide substrate with P1-arginine
T3 chain: IRRSSYSFKK

[4] = biological target: T4, internally quenched fluorogenic peptide substrate with P1-methylarginine
T4 chain: IRRSSYSFKK

[5] = biological target: T5, mouse active NSP4 (mA) (mouse), Q14B24; assay: BLI affinity class in summary table; conditions: remark: other sources report otherwise
T5 chain: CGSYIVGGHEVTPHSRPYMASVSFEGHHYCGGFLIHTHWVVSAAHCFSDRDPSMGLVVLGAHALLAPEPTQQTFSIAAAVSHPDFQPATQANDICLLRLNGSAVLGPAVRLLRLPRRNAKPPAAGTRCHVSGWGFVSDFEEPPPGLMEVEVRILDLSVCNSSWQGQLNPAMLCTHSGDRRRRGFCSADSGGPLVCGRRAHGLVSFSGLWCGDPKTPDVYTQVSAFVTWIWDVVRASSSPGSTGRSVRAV

[6] = biological target: T6, mouse zymogen NSP4 (mZ) (mouse), Q14B24; assay: BLI affinity class in summary table; conditions: remark: other sources report otherwise
T6 chain: T5 chain

[7] = biological target: T5, mouse active NSP4 (mA) (mouse), Q14B24; assay: competition phage ELISA (phage IC50); soluble mA-NSP4 against plate-coated NSP4; conditions: remark: other sources report otherwise
[8] = biological target: T7, recombinant mouse NSP4 (form not stated) (mouse, UniProt Q14B24 40-284, limits assumed); assay: phage competition binding assay (phage IC50); soluble mNSP4 competitor
T7 construct: also called mNSP4; soluble mNSP4
T7 sequence (looked up): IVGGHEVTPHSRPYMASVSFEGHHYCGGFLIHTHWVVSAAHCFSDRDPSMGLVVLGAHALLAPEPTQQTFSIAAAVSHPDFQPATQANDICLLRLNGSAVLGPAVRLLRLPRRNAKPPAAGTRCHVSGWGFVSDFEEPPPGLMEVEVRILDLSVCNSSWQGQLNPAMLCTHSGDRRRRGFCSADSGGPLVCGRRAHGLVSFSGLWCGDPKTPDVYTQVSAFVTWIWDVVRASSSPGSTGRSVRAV

[9] = biological target: T7, recombinant mouse NSP4 (form not stated); assay: ratio of phage IC50 values against the parental clone 51.WT

In the case of Factor Xa, the “cleavage of fluorogenic peptide with P1-arginine” value [1] is reported as “factor Xa, with a canonical S1 pocket could only cleave unmodified P1-Arg substrate” and the “cleavage of fluorogenic peptide with P1-methylarginine” value [2] is reported as “factor Xa, with a canonical S1 pocket could only cleave unmodified P1-Arg substrate”.

B1: human active NSP4 (hA) (protein)
chain: IIGGHEVTPHSRPYMASVRFGGQHHCGGFLLRARWVVSAAHCFSHRDLRTGLVVLGAHVLSTAEPTQQVFGIDALTTHPDYHPMTHANDICLLRLNGSAVLGPAVGLLRPPGRRARPPTAGTRCRVAGWGFVSDFEELPPGLMEAKVRVLDPDVCNSSWKGHLTLTMLCTRSGDSHRRGFCSADSGGPLVCRNRAHGLVSFSGLWCGDPKTPDVYTQVSAFVAWIWDVVRRSSPQPGPLPGTTRPPGEAA
B1 was tested, and the “kcat/KM of fluorogenic peptide cleavage” value [3] was “WT (BEVS) kcat/KM=1.1×10^4±2.1×10^3 M^-1 s^-1” and the “cleavage of fluorogenic peptide with P1-methylarginine” value [4] was “NSP4 could indeed cleave after methylarginine”.

B2: human wild-type NSP4 produced in CHO cells, activated (protein)
chain: B1 chain
With B2 the “kcat/KM of fluorogenic peptide cleavage” value [3] was “WT (CHO) kcat/KM=7.5×10^3 ±1.1×10^3 M^-1s^-1”.

B3: anti-NSP4 antibody 5-2 (antibody, V domains shown)
VH: EVQLVESGGGLVQPGGSLRLSCAASGFTFSNTYISWVRQAPGKGLEWVGFIYPANGATYYADSVKGRFTISADTSKNTAYLQMNSLRAEDTAVYYCARRYRLSFDYWGQGTLVTVSS
VL: DIQMTQSPSSLSASVGDRVTITCRASQDVSTAVAWYQQKPGKAPKLLIYSASFLYSGVPSRFSGSGSGTDFTLTISSLQPEDFATYYCQQSYTTPPTFGQGTKVEIKR
With B3 the Kd [5] was under 50 nM, the Kd [6] was > 50 nM and < 1000 nM and the IC50 [7] was 25 nM.

B4: affinity matured anti-NSP4 antibody clone 51.59 (Fab, V domains shown)
VH: EVQLVESGGGLVQPGGSLRLSCAASGFTFSGSGIHWVRQAPGKGLEWVAWISPTGGNTYYADSVKGRFTISADTSKNTAYLQMNSLRAEDTAVYYCARVFFHNVAFDYWGQGTLVTVSS
VL: B3 VL with S91N, Y92F, T93S, T94S
With B4 the IC50 [8] was 0.095 nM and the “Affinity improvement to mNSP4” value [9] was 196 fold.
